For 116 sequences, protein stability index results are on record in the supplement of paper PMC10724198.

± gives the standard deviation of the averaged measurements.
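Note: PSI is a weighted mean of sequencing reads over stability bins, variants kept only with over 10 reads, mCherry proximal and sfGFP distal, peptide attached via GGGS linker.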

The data set concerns Saccharomyces cerevisiae. The experiment in a line: protein stability index of tFT-peptide fusion (C-terminal peptide) (PSI (0-1 scale)); higher = more stable (slower turnover). The conditions noted are these: genetic background: wild type; temperature: 30 C.
Sequence HRKVCARHNWEE showed a protein stability index of 0.673 ± 0.046. As to HRLQGQGAWYVT, the protein stability index amounted to 0.643 ± 0.061. HRPGYLTSSASD showed a protein stability index of 0.65 ± 0.062. HRPPPPPSPSHL had a protein stability index of 0.686 ± 0.01. For HRQAFSAVPCIH, the protein stability index is 0.588 ± 0.042. The result for HRSHVRHSFPNP reads 0.703 ± 0.038. As for HRTSVRIPIPPI, the figure is 0.683 ± 0.012; as for HRWCLADYVEVG, 0.773 ± 0.063. HRWSRGIDATGV: the protein stability index amounted to 0.665 ± 0.083. In turn, HSCPLLLAPPPS returned a protein stability index of 0.608 ± 0.058. HSCYGHIRVSFC came in with a protein stability index of 0.705 ± 0.0098. For HSGAPFPPDSPR, the protein stability index amounted to 0.783 ± 0.16. Consider HSINNVITNNTE, for which the protein stability index stood at 0.678 ± 0.017. Take HSSLHLTRALCL: the protein stability index was found to be 0.677 ± 0.043. HSSRSPPPSPYA returned a protein stability index of 0.709 ± 0.042.

Consider HSSSASPPISSF, for which the protein stability index stood at 0.657 ± 0.041. Regarding HSTEKGIMLNEY, the protein stability index is 0.704 ± 0.19.

For the sequence HSTESHHQLDNQ, the protein stability index is 0.649 ± 0.026. HSTPPSPAPPTA registered a protein stability index of 0.675 ± 0.062. Sequence HSVVANECHQGQ showed a protein stability index of 0.766 ± 0.11. In turn, HTAITSGYSRGL came in with a protein stability index of 0.633 ± 0.049. HTGTCSVLPHTL returned a protein stability index of 0.663 ± 0.052.

In turn, HTLQDNHRLPRA came in with a protein stability index of 0.6058 ± 0.0029. As for HTPRLRRMRDYH, the figure is 0.658 ± 0.087; as for HTRIGDGSRLLA, 0.72666 ± 0.00065. HVHLHSTTAPPP showed a protein stability index of 0.695 ± 0.015. For the sequence HVTHPGCTLQLR, the protein stability index was 0.707 ± 0.071. In the case of HWLGCDESRGWV, the protein stability index is 0.668 ± 0.037.

Regarding HYFRSIFLFVVR, the protein stability index stood at 0.506 ± 0.017.

Consider HYGQRKKEFRLT, for which the protein stability index was determined as 0.73 ± 0.0075. Take HYWTTENDWPHG: the protein stability index came to 0.705 ± 0.025. The result for IADLGDLTKVTL reads 0.693 ± 0.019; that for IALACPGGSYIV, 0.6739 ± 0.0024; that for IALTSVRIPSSP, 0.678 ± 0.047. In turn, IARSVLRIGVWG gave a protein stability index of 0.612 ± 0.045. As for IASASGAQAGAR, the figure is 0.636 ± 0.017. For ICAPSPSPAFTF, the protein stability index turned out to be 0.689 ± 0.0086. In turn, ICMGSLLYVGPC came in with a protein stability index of 0.5515 ± 0.0034.

ICVYGGRKISPG returned a protein stability index of 0.6877 ± 0.00097. IDLWGNGRCVEL displayed a protein stability index of 0.701 ± 0.048.

IEKVKIMNKERN registered a protein stability index of 0.692 ± 0.017. In the case of IFFRARRLEAHT, the protein stability index came to 0.608 ± 0.019. As for IFGMSIMLNRIT, the protein stability index amounted to 0.541 ± 0.041. As to IFGVSRTGIRCT, the protein stability index was determined as 0.56 ± 0.011.

IFKNAWSSYRIE showed a protein stability index of 0.714 ± 0.037. IFPRPHVDIPLL came in with a protein stability index of 0.922 ± 0.075. IFRSCCLLGLCL returned a protein stability index of 0.591 ± 0.099. Consider IFYCPPVPTFPL, for which the protein stability index amounted to 0.697 ± 0.024. The sequence IGEGLLFWFGIR yielded a protein stability index of 0.66 ± 0.042.

The sequence IGGAMLSPLKVR gave a protein stability index of 0.55 ± 0.021.

Sequence IGGDLGRDSTCL registered a protein stability index of 0.592 ± 0.11. Sequence IGGGPLWLVNNM returned a protein stability index of 0.6748 ± 0.0054. The result for IGGYNRTFELMG reads 0.678 ± 0.032; that for IGRVSVWDQKVA, 0.673 ± 0.054; that for IGSDFQLFLEGC, 0.668 ± 0.044. As for IGSEKGKIGVGC, the figure is 0.677 ± 0.067. On to IGTGHPRTGLSR, for which the protein stability index worked out at 0.682 ± 0.031. Sequence IIFRLLLSRFFL had a protein stability index of 0.543 ± 0.022. For IIRAGVPLSISE, the protein stability index is 0.652 ± 0.019. The result for IIRKQQAKKVEL reads 0.681 ± 0.025. The result for IIRSKGTKSMHK reads 0.691 ± 0.013; that for IIYKPEKMRPKS, 0.7146 ± 0.0068; that for IKFMTTGVRTMG, 0.662 ± 0.03. As for IKKKKKKIKRNN, the figure is 0.654 ± 0.0099; as for IKKKKRRKEQEK, 0.7477 ± 0.0035; as for IKKKTKQKQHEK, 0.786 ± 0.3. The sequence IKKRKQYCKRIK yielded a protein stability index of 0.6801 ± 0.0048.

In turn, IKRIDQYEKQNK showed a protein stability index of 0.659 ± 0.07. Sequence IKRIYQKKIERK returned a protein stability index of 0.762 ± 0.067.

Take ILDNWQFSYIKD: the protein stability index came out at 0.713 ± 0.051. As for ILDRRTKREDLK, the figure is 0.667 ± 0.038; as for ILKQYLHRRFEF, 0.709 ± 0.057. As for ILLFISGPPMSF, the protein stability index worked out at 0.735 ± 0.062. As for ILRPAPVFPLDP, the figure is 0.689 ± 0.0089; as for ILSCLLRSSFQC, 0.606 ± 0.045; as for ILSSPGLLLFRL, 0.5449 ± 0.005. The sequence ILWFYSDSPWLS had a protein stability index of 0.763 ± 0.11. As for IMDHKSNSDKWI, the protein stability index is 0.7193 ± 0.0011. As for IMKKKKNKARDI, the figure is 0.75 ± 0.055; as for IMSFTLLAPGQM, 0.692 ± 0.019. As for INHNKNKTIIAL, the protein stability index amounted to 0.655 ± 0.0075. Take INRDKLNRRKKL: the protein stability index stood at 0.687 ± 0.038. As for INSKTRIQVTEN, the figure is 0.73 ± 0.035. In turn, INSSPRSSTLLL gave a protein stability index of 0.686 ± 0.034.

In turn, INWNVMDRVTCN had a protein stability index of 0.633 ± 0.12.

As for IPLLEALLQLAA, the protein stability index turned out to be 0.562 ± 0.014.

Sequence IPLSFDRLLLID displayed a protein stability index of 0.63 ± 0.015. The result for IPPCRSFSYIAT reads 0.68 ± 0.048; that for IPPLNQDPFCAS, 0.678 ± 0.017. As for IPPSSLSSPLPP, the protein stability index turned out to be 0.704 ± 0.019. IPQIVRKLVPLT registered a protein stability index of 0.575 ± 0.007. The result for IPSVRATDGKIM reads 0.649 ± 0.024; that for IRCHSERKSWMY, 0.7 ± 0.065; that for IRDLFHHFFLSV, 0.654 ± 0.038.

IRIIETPDSFYK showed a protein stability index of 0.795 ± 0.058. Turning to IRIKKGMETGKL, the protein stability index stood at 0.69 ± 0.0084.

For IRIKKQRKEKRK, the protein stability index amounted to 0.734 ± 0.048.

Consider IRLSVPGLTCVS, for which the protein stability index amounted to 0.504 ± 0.0031. As to IRPFALSPSSLP, the protein stability index amounted to 0.658 ± 0.12.

IRRKYEGNKEQN: the protein stability index came out at 0.721 ± 0.069. The sequence IRSRSVTKYGWS came in with a protein stability index of 0.606 ± 0.025.

IRVGVESGSRGR gave a protein stability index of 0.728 ± 0.22. Turning to IRVLDVWRSGHL, the protein stability index is 0.737 ± 0.0079. The result for ISPFPSFPPTLS reads 0.734 ± 0.064; that for ISPLPPVPAGLS, 0.6906 ± 0.0056. Consider ISPTPPAPSRPS, for which the protein stability index turned out to be 0.688 ± 0.015. In the case of ISRATMKARARG, the protein stability index came out at 0.6522 ± 0.004.

Regarding ISVSGLVVSVGP, the protein stability index amounted to 0.649 ± 0.011. In turn, ISWTRAPLAHPR came in with a protein stability index of 0.879 ± 0.17.

Consider ITLQGDWCRLVD, for which the protein stability index stood at 0.715 ± 0.092. ITWFRKVGAYGA had a protein stability index of 0.644 ± 0.069. Consider IVFRLGRFCGRV, for which the protein stability index was 0.709 ± 0.018. IVNLAQAEFVVT showed a protein stability index of 0.645 ± 0.039.

IVRTKLHPIGTS came in with a protein stability index of 0.655 ± 0.043. As for IVSPGSLAGCSV, the figure is 0.675 ± 0.034; as for IVTGMGVVHIWR, 0.698 ± 0.04.
